Experimental data taken from the supplement of paper PMC9170038.

Test system: MS2 coat protein
Experiment: apparent KD of MS2 coat protein; designed switch direction (-1 OFF switch, 1 ON switch): -1; higher = weaker reporter binding
In short: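 An oligonucleotide input, 200 uM small-molecule ligand, or no input was present during titration of SNAP-549-labelled MS2 coat protein, which was doubled from 0.7 or 1.5 nM to 3 µM. Designed RNA switches had been transcribed on Illumina chips by stalled E. coli RNA polymerase. Apparent KD per design is the median over clusters of curves fitted to normalised cluster fluorescence.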

[1] = Eterna round: R95, input ligand: FMN 200 uM
[2] = Eterna round: R95, input ligand: microRNA oligo, concentration not stated
[3] = Eterna round: R95, input ligand: none
[4] = input ligand: microRNA oligo, concentration not stated

## GAUUAUGCGAGCUUUAGGGACAUGAGGAUCACCCAUGUUCGUCUUAUUGAUCUAGAUGCACUGACAUACCUAAAUCU [JMF 77] (puzzle: Sensor v3, turn-off variant 1)
[1]
  apparent KD of MS2 coat protein: 15.1 nM
[2]
  apparent KD of MS2 coat protein: 18.7 nM
[3]
  apparent KD of MS2 coat protein: 17.2 nM

## AAGAAACAUGAGGAUCACCCAUGUGAGGAUAUGAAAAAGAAAAGAAAAGAAAGAAGGUUCAGAAGGCACAAAGG [salish99-ex1_r3_027] (puzzle: Exclusion 1)
[1]
  apparent KD of MS2 coat protein: 48.6 nM
[2]
  apparent KD of MS2 coat protein: 45.8 nM
[3]
  apparent KD of MS2 coat protein: 28.5 nM

## ACAUGAGGAUCACCCAUGUAAACAUAAUGGCUGAUGUAGAGUCAGGAUAUGCGUGGCUAACAAUCGCAGAAGGGACAAGACUGG [Deportation 30 - Jieux - Exclusion NG 3] (Eterna round: R96, puzzle: Exclusion NG 3)
Input ligand: FMN 200 uM
  apparent KD of MS2 coat protein: 22.2 nM
[4]
  apparent KD of MS2 coat protein: 23.1 nM
Input ligand: none
  apparent KD of MS2 coat protein: 25 nM

## AACGGUGGGUAGGAUAUCCGGUUCUAGUUGCCAGGAGAAGGGCCCACAUGAGGAUCACCCAUGUGGGUGGGCUC [Maesri] (Eterna round: R96, puzzle: Exclusion 6)
Input ligand: FMN 200 uM
  apparent KD of MS2 coat protein: 44.6 nM
[4]
  apparent KD of MS2 coat protein: 43.1 nM
Input ligand: none
  apparent KD of MS2 coat protein: 81.3 nM

## GUAACAUGCUGGUGAUCAUACAUGAGGAUCACCCAUGUAACAAGCUUUUUGUUCGUCUUAUAAGAUCACCAGCAUGU [Stov1/9-B2] (Eterna round: R97, puzzle: Sensor, turn-off variant 1)
Input ligand: FMN 200 uM
  apparent KD of MS2 coat protein: 18.4 nM
Input ligand: none
  apparent KD of MS2 coat protein: 19.8 nM

## GCGCCAUCGUGAGAUGGCGUAACUACAUGAGGAUCACCCAUGUAGGAUAUCGAUUGCUUUGCAGUCGAGAAGGGCAUGGUUUGU [JL ENG3 3.86] (Eterna round: R96, puzzle: Exclusion NG 3)
Input ligand: FMN 200 uM
  apparent KD of MS2 coat protein: 56.1 nM
[4]
  apparent KD of MS2 coat protein: 20.2 nM
Input ligand: none
  apparent KD of MS2 coat protein: 22.8 nM

## UUAGGCGUCAUUGCUCGUCUUUUAUGGAGAUGACUGUUAACAUGAGGAUCACCCAUGUGUGUGGGAGCUUUGCAGUU [JR_SV3TOV2_Sub023] (puzzle: Sensor v3, turn-off variant 2)
[1]
  apparent KD of MS2 coat protein: 213 nM
[2]
  apparent KD of MS2 coat protein: 568 nM
[3]
  apparent KD of MS2 coat protein: 270 nM

## CUGAGCUGAGGAUAUACAUGAGGAUCACCCAUGUUAAGCAGCUUGCGUAAAAGCAGAUGUAGAAGGCAGUUCGG [Mod of JL 18 - Jieux - Exclusion 3] (Eterna round: R97, puzzle: Exclusion 3)
Input ligand: FMN 200 uM
  apparent KD of MS2 coat protein: 18.1 nM
Input ligand: none
  apparent KD of MS2 coat protein: 13.7 nM

## GGGCCCGGUGUGAGGAUAUGCCCGGGUAAACCCGGGUAGAAGGCACAUGAGGAUCACCCAUGUAAGCCGGGCCC [-43, -40.9 kcal, A 23%, 5cbis-0] (Eterna round: R97, puzzle: Brourd's mod of Exclusion 4)
Input ligand: FMN 200 uM
  apparent KD of MS2 coat protein: 12.8 nM
Input ligand: none
  apparent KD of MS2 coat protein: 17.7 nM

## GAUUCGGGAGGAUAUACAUGAGGAUCACCCAUGUAUAUAUAAUAUAAUAAAUUAAAAUGUAGAAGGUUUGGGUC [-13.5, -9.6 kcal, 38% A] (Eterna round: R97, puzzle: Exclusion 3)
Input ligand: FMN 200 uM
  apparent KD of MS2 coat protein: 22.8 nM
Input ligand: none
  apparent KD of MS2 coat protein: 23.2 nM

## AAGAAAGACGAAGGAUAUUCAGGCGCCGAAGUAGAAGAAGGUCGUCCGGGUGUCCUAAAACUUGAGGAUCACCCAAGUAGAAGA [Mutated MS2 EX1.2] (Eterna round: R96, puzzle: Exclusion NG 1)
Input ligand: FMN 200 uM
  apparent KD of MS2 coat protein: 62.1 nM
[4]
  apparent KD of MS2 coat protein: 6.43 nM
Input ligand: none
  apparent KD of MS2 coat protein: 25.5 nM
